Data from article PMC10303025.

Molecular target: T1, M2-1 transcription antiterminator (Human respiratory syncytial virus, UniProt P04545 1-194)
T1 sequence: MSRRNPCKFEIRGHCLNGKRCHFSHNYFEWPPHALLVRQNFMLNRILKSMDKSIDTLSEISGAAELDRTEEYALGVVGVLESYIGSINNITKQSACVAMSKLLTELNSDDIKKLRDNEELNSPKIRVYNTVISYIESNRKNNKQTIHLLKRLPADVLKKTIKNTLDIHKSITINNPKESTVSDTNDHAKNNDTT
Experiment: not stated (EMSA and fluorescence polarization titrations mentioned); Kd may derive from earlier work [37]
Conditions: protein: recombinant; chain copies: 4; label: 5' 6-FAM; single strand

## AUAAAGUAGUUAAUUAAAAA (ssRNA) [RNARSV20 (SH gene end 20-mer)]
  Kd: 20 nM
